According to article PMC10434305:
Where two headings read alike, the source gives them in different places.

What was measured:
[1] = target: Arp3 L117C, C408A, C189A, C307A (subunit of human Arp2/3 complex for the crosslinking assay) (human) (UniProt P61158); test: cross-linking
[2] = target: Arp3 L117C, C408A, C189A, C307A (subunit of human Arp2/3 complex for the crosslinking assay) (human) (UniProt P61158); test: cross-linking; remark: listed apart in the source
[3] = target: Arp3 L117C, C408A, C189A, C307A (subunit of human Arp2/3 complex for the crosslinking assay) (human) (UniProt P61158); test: cross-linking; remark: listed apart in the source
[4] = target: Skeletal α-actin, monomeric (G-actin) (UniProt P68135); test: SEC

crosslinked fraction at plateau [1] | crosslinked fraction at plateau [2] | crosslinked fraction at plateau [3] | stoichiometry N (CapZ-CA:actin) [4] | Substance
34% | 34% | 14% |  | Arp2 L199C (subunit of human Arp2/3 complex for the crosslinking assay) (from UniProt P61160 1-394) (natural protein)
 |  |  | 1 | CapZ-CA hybrid heterodimer (CapZα-CA, CapZβ-CA) (from UniProt P52907;Q91YD9;P47756) (complex)
